Measurements published in patent US20240118272A1.

Columns and labels:
[1] = target: CD9(FL)-ALP conjugate (human; bovine); assay: HI-1000 capture immunoassay; calibrator C1, 1.83 mU/L; run 3
[2] = target: CD9(FL)-ALP conjugate (human; bovine); assay: HI-1000 capture immunoassay; calibrator C5, 30 ng/mL; mean of 3
[3] = target: CD9(FL)-ALP conjugate (human; bovine); assay: HI-1000 capture immunoassay; calibrator C4, 15 ng/mL; run 3
[4] = target: CD9(FL)-ALP conjugate (human; bovine); assay: HI-1000 capture immunoassay; calibrator C1, 1.0 ng/mL; run 2
[5] = target: CD9(ECD)-ALP conjugate (human; bovine); assay: HI-1000 capture immunoassay; secondary calibrator C4; mean of 3 aliquots
[6] = target: CD9(ECD)-ALP conjugate (human; bovine); assay: HI-1000 capture immunoassay; primary calibrator C5, 159.87 ng/mL; run 1
[7] = target: CD9(ECD)-ALP conjugate (human; bovine); assay: HI-1000 capture immunoassay; primary calibrator C2, 4.89 ng/mL; run 1
[8] = target: CD9(FL)-ALP conjugate (human; bovine); assay: HI-1000 capture immunoassay; calibrator C5, 43.86 mU/L; run 3
[9] = target: CD9(ECD)-ALP conjugate (human; bovine); assay: HI-1000 capture immunoassay; thawed aliquot 2 of secondary calibrator C3
[10] = target: CD9(FL)-ALP conjugate (human; bovine); assay: HI-1000 capture immunoassay; calibrator C4, 15 ng/mL; run 2
[11] = target: CD9(FL)-ALP conjugate (human; bovine); assay: HI-1000 capture immunoassay; calibrator C3, 7.4 ng/mL; mean of 3
[12] = target: CD9(FL)-ALP conjugate (human; bovine); assay: HI-1000 capture immunoassay; calibrator C4, 21.93 mU/L; run 3
[13] = target: CD9(ECD)-ALP conjugate (human; bovine); assay: HI-1000 capture immunoassay; secondary calibrator C2, 3.84 U/L; run 1
[14] = target: CD9(ECD)-ALP conjugate (human; bovine); assay: HI-1000 capture immunoassay; secondary calibrator C4, 129.62 U/L; run 2
[15] = target: CD9(ECD)-ALP conjugate (human; bovine); assay: HI-1000 capture immunoassay; secondary calibrator C2, 3.84 U/L; run 3
[16] = target: CD9(ECD)-ALP conjugate (human; bovine); assay: HI-1000 capture immunoassay; primary calibrator C4, 50.05 ng/mL; run 1
[17] = target: CD9(ECD)-ALP conjugate (human; bovine); assay: HI-1000 capture immunoassay; primary calibrator C4, 50.05 ng/mL; run 3
[18] = target: CD9(ECD)-ALP conjugate (human; bovine); assay: HI-1000 capture immunoassay; secondary calibrator C3, 14.32 U/L; run 3
[19] = target: CD9(ECD)-ALP conjugate (human; bovine); assay: HI-1000 capture immunoassay; primary calibrator C1, 1.52 ng/mL; run 2
[20] = target: CD9(ECD)-ALP conjugate (human; bovine); assay: HI-1000 capture immunoassay; secondary calibrator C4, 129.62 U/L; run 3
[21] = target: CD9(ECD)-ALP conjugate (human; bovine); assay: HI-1000 capture immunoassay; primary calibrator C2, 4.89 ng/mL; mean of 3
[22] = target: CD9(ECD)-ALP conjugate (human; bovine); assay: HI-1000 capture immunoassay; secondary calibrator C1, 1.02 U/L; run 2
[23] = target: CD9(ECD)-ALP conjugate (human; bovine); assay: HI-1000 capture immunoassay; thawed aliquot 2 of secondary calibrator C1
[24] = target: CD9(ECD)-ALP conjugate (human; bovine); assay: HI-1000 capture immunoassay; primary calibrator C2, 4.89 ng/mL; run 2
[25] = target: CD9(ECD)-ALP conjugate (human; bovine); assay: HI-1000 capture immunoassay; primary calibrator C5, 159.87 ng/mL; mean of 3
[26] = target: CD9(ECD)-ALP conjugate (human; bovine); assay: HI-1000 capture immunoassay; secondary calibrator C1, 1.02 U/L; mean of 3
[27] = target: CD9(ECD)-ALP conjugate (human; bovine); assay: HI-1000 capture immunoassay; primary calibrator C1, 1.52 ng/mL; mean of 3
[28] = target: CD9(FL)-ALP conjugate (human; bovine); assay: HI-1000 capture immunoassay; calibrator C1, 1.83 mU/L; mean of 3
[29] = target: CD9(FL)-ALP conjugate (human; bovine); assay: HI-1000 capture immunoassay; calibrator C3, 7.4 ng/mL; run 1
[30] = target: CD9(FL)-ALP conjugate (human; bovine); assay: HI-1000 capture immunoassay; calibrator C5, 43.86 mU/L; mean of 3
[31] = target: CD9(ECD)-ALP conjugate (human; bovine); assay: HI-1000 capture immunoassay; secondary calibrator C3; mean of 3 aliquots
[32] = target: CD9(ECD)-ALP conjugate (human; bovine); assay: HI-1000 capture immunoassay; primary calibrator C4, 50.05 ng/mL; run 2
[33] = target: CD9(ECD)-ALP conjugate (human; bovine); assay: HI-1000 capture immunoassay; secondary calibrator C1; mean of 3 aliquots
[34] = target: CD9(FL)-ALP conjugate (human; bovine); assay: HI-1000 capture immunoassay; calibrator C4, 15 ng/mL; mean of 3
[35] = target: CD9(ECD)-ALP conjugate (human; bovine); assay: HI-1000 capture immunoassay; secondary calibrator C4, 129.62 U/L; run 1
[36] = target: CD9(ECD)-ALP conjugate (human; bovine); assay: HI-1000 capture immunoassay; secondary calibrator C4, 129.62 U/L; mean of 3
[37] = target: CD9(ECD)-ALP conjugate (human; bovine); assay: HI-1000 capture immunoassay; secondary calibrator C3, 14.32 U/L; run 2
[38] = target: CD9(ECD)-ALP conjugate (human; bovine); assay: HI-1000 capture immunoassay; primary calibrator C3, 15.65 ng/mL; mean of 3
[39] = target: CD9(ECD)-ALP conjugate (human; bovine); assay: HI-1000 capture immunoassay; primary calibrator C4, 50.05 ng/mL; mean of 3
[40] = target: CD9(FL)-ALP conjugate (human; bovine); assay: HI-1000 capture immunoassay; calibrator C4, 15 ng/mL; run 1

Sequence of CD9(FL)-ALP conjugate (human; bovine) (chain, as listed by the source, chain 1 of 2): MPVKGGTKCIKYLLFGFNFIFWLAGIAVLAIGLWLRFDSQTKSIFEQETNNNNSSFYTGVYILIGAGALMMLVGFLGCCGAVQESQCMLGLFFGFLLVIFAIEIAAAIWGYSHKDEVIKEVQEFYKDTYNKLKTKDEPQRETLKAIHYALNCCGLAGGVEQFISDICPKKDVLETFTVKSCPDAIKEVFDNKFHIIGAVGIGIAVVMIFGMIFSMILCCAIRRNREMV
Sequence of CD9(FL)-ALP conjugate (human; bovine) (P19111 20-506, chain 2 of 2): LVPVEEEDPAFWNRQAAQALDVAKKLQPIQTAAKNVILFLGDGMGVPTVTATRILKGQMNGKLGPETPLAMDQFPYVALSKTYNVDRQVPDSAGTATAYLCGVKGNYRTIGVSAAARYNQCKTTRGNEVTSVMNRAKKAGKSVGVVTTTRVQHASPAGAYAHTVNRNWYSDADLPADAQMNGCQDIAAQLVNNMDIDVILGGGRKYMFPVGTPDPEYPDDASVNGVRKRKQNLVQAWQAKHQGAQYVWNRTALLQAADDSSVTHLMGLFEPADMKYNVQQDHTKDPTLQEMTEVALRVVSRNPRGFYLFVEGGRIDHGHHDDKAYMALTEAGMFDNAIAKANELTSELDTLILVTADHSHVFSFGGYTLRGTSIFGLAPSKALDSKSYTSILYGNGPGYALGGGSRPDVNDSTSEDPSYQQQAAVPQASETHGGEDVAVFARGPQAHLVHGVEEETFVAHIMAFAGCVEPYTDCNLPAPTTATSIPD
Sequence of CD9(ECD)-ALP conjugate (human; bovine) (chain, as listed by the source, chain 1 of 2): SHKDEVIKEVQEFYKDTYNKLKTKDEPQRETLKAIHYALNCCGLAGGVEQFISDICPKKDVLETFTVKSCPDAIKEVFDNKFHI
Sequence of CD9(ECD)-ALP conjugate (human; bovine) (P19111 20-506, chain 2 of 2): as the sequence (P19111 20-506, chain 2 of 2) above

- Count value [1]: 1460 count
- Count value (av) [2]: 25900 count
- Count value [3]: 13900 count
- Count value [4]: 1550 count
- Count value (av) [5]: 11600 count
- Count value [6]: 70400 count
- Count value [7]: 2610 count
- Count value [8]: 27800 count
- Count value [9]: 4080 count
- Count value [10]: 13800 count
- Count value (av) [11]: 7020 count
- Count value [12]: 13300 count
- Count value [13]: 2420 count
- Count value [14]: 69400 count
- Count value [15]: 2450 count
- Count value [16]: 22400 count
- Count value [17]: 22600 count
- Count value [18]: 8060 count
- Count value [19]: 1100 count
- Count value [20]: 69500 count
- Count value (av) [21]: 2560 count
- Count value [22]: 937 count
- Count value [23]: 810 count
- Count value [24]: 2520 count
- Count value (av) [25]: 69800 count
- Count value (av) [26]: 941 count
- Count value (av) [27]: 1100 count
- Count value (av) [28]: 1540 count
- Count value [29]: 7040 count
- Count value (av) [30]: 26400 count
- Count value (av) [31]: 3900 count
- Count value [32]: 21800 count
- Count value (av) [33]: 811 count
- Count value (av) [34]: 13500 count
- Count value [35]: 71000 count
- Count value (av) [36]: 70000 count
- Count value [37]: 8240 count
- Count value (av) [38]: 7190 count
- Count value (av) [39]: 22200 count
- Count value [40]: 13000 count
Substance: anti-CD9 antibody (Clone: H19a)
